Target: 6His-CaM7 (Arabidopsis thaliana), P59220
Assay: ITC at 25 C, peptide titrated into 6His-CaM7, 1 mM Ca2+

stoichiometry (peptide per CaM7): 1
Binder: DQQQNHDSSSMRSTRLQRFLSL (modifications not checked) [CBD peptide]
